Experimental findings from patent US6730480B1, “Sphingosine kinase enzyme” (Johnson & Johnson Pharmaceutical Research and Development …, priority 1999, dated 2004) are described below.

The subject of data set [1] is sphingosine kinase activity in HEK293 cells. The data set is described as follows: Transient expression of hSK and TNFα stimulation of sphingosine kinase activity in HEK293 cells. The format is cell-based, human. As for the experimental part: (§1) Sphingosine kinase activity was routinely determined using D-erythro-sphingosine and [γ^32P]ATP as substrates, essentially as previously described (Olivera et al., 1998) with some modifications. Briefly, assays were performed by incubating samples at 37° C. for 30 min with sphingosine (100 μM stock dissolved in 5% Triton X-100) and [γ-^32P]ATP (1 mM; 10 μCi/ml) in assay buffer containing 100 mM Tris/HCl (pH 7.4), 10 mM MgCl2 10% (v/v) glycerol, 1 mM dithiothreitol, 1 mM EGTA, 1 mM Na3VO4, 15 mM NaF, 0.5 mM 4-deoxypyridoxine in a total volume of 100 μl. Reactions were terminated and sphingosine-1-phosphate extracted by the addition of 700 μl of chloroform/methanol/HCl (100:200:1. v/v), followed by vigorous mixing, addition of 200 μp of chloroform and 200 μl of 2 M KCl, and phase separation by centrifugation. The labeled S1P in the organic phase was isolated by TLC on Silica Gel 60 with 1-butanol/ethanol/acetic acid/water (8:2:1:2, v/v) and quantitated by phosphorimager (Molecular Dynamics. Sunnyvale, Calif.). One unit (U) of activity is defined as 1pmol of S1P formed per minute.
For mammalian cell expression the hSK cDNA was FLAG epitope tagged at the 3′-end by PFU polymerase PCR with oligonucleotide primers T7 and 5′-[…]-3′ [SEQ ID NO:5]. […] The orientation was determined by restriction analysis and sequencing verified the integrity of the hSK-FLAG cDNA sequence. […]

Data set [2] deals with sphingosine kinase activity in HUVEC. The data set can be described thus: TNFα stimulation of sphingosine kinase activity in HUVEC extracts. It is filed as cell-based, human. The following applies: TNFα treated HUVEC (untreated HUVEC 78). As for the experimental part:
as §1
Human umbilical vein endothelial cells (HUVEC) were isolated as previously described (Wall et al., 1978) and cultured on gelatin-coated culture flasks in medium M199 with Earle's salts supplemented with 20% fetal calf serum, 25 μg/ml endothelial growth supplement (Collaborative Research) and 25 μg/ml heparin. […]

Substrate in data set [3]: CCCCCCCCCCCCC/C=C/[C@@H](O)[C@@H](N)CO
The data set can be described thus: Sphingosine kinase enzyme assay with native SK purified from human placenta. The following applies: other: Native SK, 37.0 °C. It is filed as biochemical.
Protocol: The substrates examined were added to a final concentration of 100 μM in 0.25% (w/v) Triton X-100, and assayed under the standard assay conditions outlined earlier.
Substrate kinetics were determined by supplying substrates over the concentration range of 0.5 to 200 μM for sphingosine analogues, and 5 to 1000 μM for ATP. Inhibition kinetics were determined by the use of inhibitors over a concentration range of 2 to 50 μM (Table 5). In both cases the data were analysed by non-linear regression.
The effect of metal ions on the activity of the native and recombinant sphingosine kinases were determined by assaying the activity under standard conditions in the presence of various metal ions or EDTA at 10 mM.

Substrate in data set [4]: CCCCCCCCCCCCC/C=C/[C@@H](O)[C@@H](N)CO
The data set is described as follows: Sphingosine kinase enzyme assay with recombinant human SK expressed in E. coli. It is filed as biochemical. The following applies: other: Recombinant SK.

Data set [5] is classed as physicochemical, human. The note with it: pH range 4 to 11, 50 mM buffers, 37° C. As for the experimental part: The effect of pH on the activity of the isolated sphingosine kinases was determined over the pH range 4.0 to 11.0 in 50 mM buffers (sodium acetate, pH 4.0-5.0; Mes, pH 6.0-7.0; Hepes, pH 7.0-8.2; Tris/HCl, pH 8.2-10.0: Caps, pH 10.0-11.0) at 37° C. pH stability was determined by assaying the residual activity after pre-incubation of the enzymes in the same buffers for 5 h at 4° C. Similarly, thermal stabilities were determined by assaying the residual activity after pre-incubation of the enzymes at various temperatures (4-80° C.) for 30 min at pH 7.4 (50 mM Tris/HCl containing 10% glycerol, 0.5 M NaCl and 0.05% Triton X-100). Substrate kinetics were analysed using Michaelis-Menten kinetics with a weighted non-linear regression program (Easterby, 1996). Since sphingosine and its analogues were added to the enzyme assays in mixed micelles with Triton X-100, where they exibit surface dilution kinetics (Buehrer and Bell. 1992), all K, and KC values obtained for these molecules were expressed as mol % of Triton X-100, rather than as bulk solution concentrations. […]
Thermal stabilities of the native and recombinant sphingosine kinases were determined by assaying the residual activity remaining after preincubation of the enzymes at various temperatures (4 to 80° C.) for 30 min at pH 7.4 (50 mM Tris/HCl containing 10% glycerol, 0.5M NaCl and 0.05% Triton X-100). […]

Where [6] appears, read: sphingosine supplied as a sphingosine-BSA complex.
[7] abbreviates: substrate kinetics, bulk solution concentration.

For TNFα, the “Increase in sphingosine kinase activity after TNFα treatment” value in data set [1] (hSK-transfected HEK293 cells, TNFα 1 ng/ml, 10 min) is reported as “approximately 2 fold”. For the same molecule, the “Total sphingosine kinase activity in cell extract” value in data set [2] amounted to 136 U/mg proteins.

B1: native sphingosine kinase (human placenta SK1) (Homo sapiens) (protein)
chain: MDPAGGPRGVLPRPCRVLVLLNPRGGKGKALQLFRSHVQPLLAEAEISFTLMLTERRNHARELVRSEELGRWDALVVMSGDGLMHEVVNGLMERPDWETAIQKPLCSLPAGSGNALAASLNHYAGYEQVTNEDLLTNCTLLLCRRLLSPMNLLSLHTASGLRLFSVLSLAWGFIADVDLESEKYRRLGEMRFTLGTFLRLAALRTYRGRLAYLPVGRVGSKTPASPVVVQQGPVDAHLVPLEEPVPSHWTVVPDEDFVLVLALLHSHLGSEMFAAPMGRCAAGVMHLFYVRAGVSRAMLLRLFLAMEKGRHMEYECPYLVYVPVVAFRLEPKDGKGVFAVDGELMVSEAVQGQVHPNYFWMVSGCVEPPPSWKPQQMPPPEEPL
notes: from tissue; host or cells: human placenta
On to B1, for which the kcat (usually the maximal rate divided by the concentration of active sites) in data set [3] (setting [6]) was found to be 28 s⁻¹. Besides, in data set [3] (setting [7]), the Km (usually the substrate concentration at which the rate is half of its maximum) stood at 14 ± 2 µM, the turnover number (kcat) was 50 s⁻¹ and the specificity constant (kcat/Km) (commonly the turnover number divided by the Michaelis constant) amounted to 3.6e+06 M⁻¹ s⁻¹.

B2: recombinant human sphingosine kinase (Homo sapiens) (protein)
chain: MDPAGGPRGVLPRPCRVLVLLNPRGGKGKALQLFRSHVQPLLAEAEISFTLMLTERRNHARELVRSEELGRWDALVVMSGDGLMHEVVNGLMERPDWETAIQKPLCSLPAGSGNALAASLNHYAGYEQVTNEDLLTNCTLLLCRRLLSPMNLLSLHTASGLRLFSVLSLAWGFIADVDLESEKYRRLGEMRFTLGTFLRLAALRTYRGRLAYLPVGRVGSKTPASPVVVQQGPVDAHLVPLEEPVPSHWTVVPDEDFVLVLALLHSHLGSEMFAAPMGRCAAGVMHLFYVRAGVSRAMLLRLFLAMEKGRHMEYECPYLVYVPVVAFRLEPKDGKGVFAVDGELMVSEAVQGQVHPNYFWMVSGCVEPPPSWKPQQMPPPEEPL
notes: The full length SPHK cDNA cloned into pGEX4T2 was transformed into E. coli BL21; GST (N, cleaved yes); made in house; host or cells: E. coli BL21
Consider B2, for which, in data set [4] (setting [6]), the kcat was 39 s⁻¹. In data set [4] (setting [7]), the Michaelis constant (Km) stood at 12 ± 3 µM, the turnover number (kcat) turned out to be 85 s⁻¹ and the kcat/Km stood at 7.1e+06 M⁻¹ s⁻¹.

B3: native sphingosine kinase: sphingosine kinase SK1 purified to homogeneity from human placenta (protein, UniProt Q9NYA1 1-384, looked up)
Sphingosine kinase 1: MDPAGGPRGVLPRPCRVLVLLNPRGGKGKALQLFRSHVQPLLAEAEISFTLMLTERRNHARELVRSEELGRWDALVVMSGDGLMHEVVNGLMERPDWETAIQKPLCSLPAGSGNALAASLNHYAGYEQVTNEDLLTNCTLLLCRRLLSPMNLLSLHTASGLRLFSVLSLAWGFIADVDLESEKYRRLGEMRFTLGTFLRLAALRTYRGRLAYLPVGRVGSKTPASPVVVQQGPVDAHLVPLEEPVPSHWTVVPDEDFVLVLALLHSHLGSEMFAAPMGRCAAGVMHLFYVRAGVSRAMLLRLFLAMEKGRHMEYECPYLVYVPVVAFRLEPKDGKGVFAVDGELMVSEAVQGQVHPNYFWMVSGCVEPPPSWKPQQMPPPEEPL
Regarding B3, the “pH of maximum activity” value in data set [5] is 7.4.

B4: recombinant sphingosine kinase: hSK expressed as GST fusion in E. coli BL21, thrombin-cleaved and purified (protein)
chain: MDPAGGPRGVLPRPCRVLVLLNPRGGKGKALQLFRSHVQPLLAEAEISFTLMLTERRNHARELVRSEELGRWDALVVMSGDGLMHEVVNGLMERPDWETAIQKPLCSLPAGSGNALAASLNHYAGYEQVTNEDLLTNCTLLLCRRLLSPMNLLSLHTASGLRLFSVLSLAWGFIADVDLESEKYRRLGEMRFTLGTFLRLAALRTYRGRLAYLPVGRVGSKTPASPVVVQQGPVDAHLVPLEEPVPSHWTVVPDEDFVLVLALLHSHLGSEMFAAPMGRCAAGVMHLFYVRAGVSRAMLLRLFLAMEKGRHMEYECPYLVYVPVVAFRLEPKDGKGMFAVDGELMVSEAVQGQVHPNYFWMVSGCVEPPPSWKPQQMPPPEEPL
B4: the “pH of maximum activity” value in data set [5] worked out at 7.4.

B5: hSK: human sphingosine kinase encoded by the cloned cDNA, SEQ ID NO:2 (protein)
chain: MDPAGGPRGVLPRPCRVLVLLNPRGGKGKALQLFRSHVQPLLAEAEISFTLMLTERRNHARELVRSEELGRWDALVVMSGDGLMHEVVNGLMERPDWETAIQKPLCSLPAGSGNALAASLNHYAGYEQVTNEDLLTNCTLLLCRRLLSPMNLLSLHTASGLRLFSVLSLAWGFIADVDLESEKYRRLGEMRFTLGTFLRLAALRTYRGRLAYLPVGRVGSKTPASPVVVQQGPVDAHLVPLEEPVPSHWTVVPDEDFVLVLALLHSHLGSEMFAAPMGRCAAGVMHLFYVRAGVSRAMLLRLFLAMEKGRHMEYECPYLVYVPVVAFRLEPKDGKGMFAVDGELMVSEAVQGQVHPNYFWMVSGCVEPPPSWKPQQMPPPEEPL
In the case of B5, the “Increase in sphingosine kinase activity on transient expression” value in data set [1] (HEK293 cells, pcDNA3-hSK, versus untransfected or empty vector) came out at 3200 fold.
